Test results: patent WO2013041865A1

Tests used:
[1] = molecular target: … HLA-A*01 complex (MAGE-3 peptide, soluble biotinylated pHLA); experiment: SPR (BIAcore) method of Example 3
[2] = molecular target: … HLA-A*01 complex (MAGE-3 peptide, soluble biotinylated pHLA); experiment: SPR (BIAcore 3000); biotinylated pHLA on streptavidin chip, soluble TCR injected, 25 C

B1: reference MAGE-3 TCR (disulfide linked soluble heterodimeric form) (TCR, V domains shown)
V domain 1: KQEVTQIPAALSVPEGENLVLNCSFTDSAIYNLQWFRQDPGKGLTSLLLIQSSQREQTSGRLNASLDKSSGRSTLYIAASQPGDSATYLCAVRPGGAGSYQLTFGKGTKLSVIP
V domain 2: KAGVTQTPRYLIKTRGQQVTLSCSPISGHRSVSWYQQTPGQGLQFLFEYFSETQRNKGNFPGRFSGRQFSNSRSEMNVSTLELGDSALYLCASSPNMADEQYFGPGTRLTVTE
- koff [1]: 0.2 s⁻¹
- T½ (binding half-life) [2]: 3 s
